Results as given in patent publication US7312058B2, “Mutant serine acetyltransferase” (priority 2003, dated 2007).

What was measured:
E. coli strain MG1655 = experiment: L-cysteine production by test-tube fermentation of strains carrying a mutant cysE plasmid; type: cell-based
Excerpt: The E. coli strain MG1655 (ATCC47076, ATCC700926) was used as a parental strain for evaluation of effect of enhanced expression of mutant cysE gene on L-cysteine production.
Plasmids pMW-PompC-cysEX (containing mutant cysEX gene encoding a mutant SAT in which Thr167 is replaced with Ala, which is described in the U.S. Pat. No. 6,218,168) and pMW-PompC-cysE5 were introduced into the E. coli strain MG1655. The resulting strains MG1655/pMW-PompC-cysEX and MG1655/pMW-PompC-cysE5 were cultivated overnight with shaking at 34° C. in 2 ml of nutrient broth supplemented with 100 mg/l of ampicillin. 0.2 ml of the obtained cultures were inoculated into 2 ml of a fermentation medium containing ampicillin (100 mg/l) in 20×200 mm test tubes, and cultivated at 34° C. for 42 hours with a rotary shaker at 250 rpm. The composition of the fermentation medium was the following: 15.0 g/l of (NH4)2SO4, 1.5 g/l of KH2PO4, 1.0 g/l of MgSO4, 20.0 g/l of CaCO3, 0.1 mg/l of thiamine, 1% of LB, 4% of glucose, 300 mg/l of L-methionine and 0.5 g/l of Na2S2O3.
After cultivation, the amount of L-cysteine which had accumulated in the medium was determined by the method described by Gaitonde, M. K. (Biochem. J., 104:2, 627-33 (1967)).

[1] = test system: serine acetyltransferase (SAT)
Procedure: Acetyl coenzyme A and other chemicals used were from Sigma Chemical Co. (St. Louis, Mo., USA).
The cells were sonicated and the pellet was separated by centrifugation at 13000 rpm. The SAT-containing protein fractions in the resulting supernatant were precipitated by 5 volumes of saturated (NH4)2SO4 and pellets were dissolved in 2 ml of buffer (pH 7.5, 50 mM potassium phosphate and 100 mM KCl). The obtained solution was added to 0.1 ml of reaction mixture (500 mM Tris-HCl (pH 8.5), 5 mM L-serine, 0.1 mM acetyl coenzyme A) and incubated at 37° C. for 10 min. The reaction was stopped by adding 0.3 ml of ethanol followed by centrifugation at 13000 rpm. 0.95 ml of 0.24 mM DTNB (5,5-dithio-bis-2-nitrobenzoate) solution was added to supernatant and mixture was incubated for 15 min. The SAT activity was assayed by measuring the absorbance at 412 nm.

For “cysE5 (RTRDPARP; randomized region of SAT protein only)”, the “effect of overexpression on cysteine productivity” value (E. coli strain MG1655) was “improved cysteine productivity”, the “Residual activity in presence 25 μM cysteine, %” value ([1]; 25 μM cysteine) was 100% and the “Specific activity, relative units” value ([1]; protein fraction from LE392 cysE::KmR carrying the plasmid, 5 mM L-serine, 0.1 mM acetyl coenzyme A, 37° C., 10 min) was 900 relative units. For the same substance, the “sensitivity to feedback inhibition by L-cysteine” value ([1]; statement from Table 2 and FIG. 5) was “no sensitivity to feedback inhibition by L-cysteine”.
